These results are taken from article PMC10953559.

This experiment has as its target GroEL14 as used with the substrate proteins NanA and DapA (E. coli) (UniProt P0A6F5). The experiment can be described thus: native MS; CE-MS; 6 µM GroEL14 with 6 or 12 µM substrate monomers, denatured in 6.5 M GuHCl and 9 mM DTT and diluted 30-fold into GroEL14 buffer pH 7.5 (200 mM GuHCl, 0.3 mM DTT left); no ATP, no GroES; BGE 50 mM ammonium acetate pH 6.7.

Where “and” joins values, the source holds several entries; their conditions need not be identical. Equal values may be shown once.

N-acetyl neuraminic acid aldolase, denatured monomer (NanA), sequence (P0A6L4 2-297): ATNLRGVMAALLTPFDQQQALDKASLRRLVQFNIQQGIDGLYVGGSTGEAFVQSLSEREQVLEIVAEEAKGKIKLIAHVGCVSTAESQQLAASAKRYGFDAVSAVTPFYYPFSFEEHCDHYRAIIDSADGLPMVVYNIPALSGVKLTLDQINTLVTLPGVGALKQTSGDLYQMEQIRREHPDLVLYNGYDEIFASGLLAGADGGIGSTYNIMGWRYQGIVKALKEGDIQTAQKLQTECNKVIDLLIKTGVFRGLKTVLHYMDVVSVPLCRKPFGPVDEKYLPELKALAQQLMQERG

As to “N-acetyl neuraminic acid aldolase, denatured monomer (NanA) (from UniProt P0A6L4 2-297) (enzyme)”, the share of the total signal intensity, GroEL14-NanA1 complex worked out at 10%; the share of the total signal intensity, GroEL14-NanA2 complex came out at 90%; the stoichiometry N (NanA monomers per GroEL14) is 1 and 2.
